From patent publication US20110123549A1 (KALOBIOS PHARMACEUTICALS, published 2011)
Where a chain is given by its changes, count along the chain named.

Columns and labels:
[1] = biological target: T1, EphA3-Fc recombinant fusion protein (UniProt P29320 21-541, limits assumed); assay: ELISA, plate coated with EphA3-Fc, detection with anti-human kappa chain HRP conjugate, A450
T1 construct: also called the antigen
T1 sequence (looked up): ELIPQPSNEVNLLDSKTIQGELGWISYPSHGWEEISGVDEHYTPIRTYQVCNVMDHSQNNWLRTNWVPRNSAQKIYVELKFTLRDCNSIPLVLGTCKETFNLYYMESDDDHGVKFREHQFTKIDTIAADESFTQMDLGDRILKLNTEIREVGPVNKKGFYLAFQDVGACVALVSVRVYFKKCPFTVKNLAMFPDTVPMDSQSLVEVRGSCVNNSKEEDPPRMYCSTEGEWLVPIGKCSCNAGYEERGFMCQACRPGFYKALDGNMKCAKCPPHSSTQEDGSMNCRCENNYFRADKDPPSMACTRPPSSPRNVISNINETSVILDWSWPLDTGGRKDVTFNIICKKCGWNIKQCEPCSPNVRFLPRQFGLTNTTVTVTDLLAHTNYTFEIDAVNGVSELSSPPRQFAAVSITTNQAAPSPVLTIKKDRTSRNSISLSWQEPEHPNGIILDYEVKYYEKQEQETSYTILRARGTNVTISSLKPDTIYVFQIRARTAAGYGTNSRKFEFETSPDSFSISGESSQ
Source text: A full-length antibody (IgG1κ) was constructed, expressed from CHO cells and purified by Protein A affinity chromatography. ELISA plates were coated with EphA3-Fc and binding of cIIIA4 IgG, an exemplary engineered IgG, and a control IgG1 were compared (FIG. 3). The EC₅₀ in this assay was approximately three-fold lower for the engineered IgG than for the original chimeric antibody.

[2] = biological target: T2, EphA3 expressed on the surface of B16 mouse melanoma cells (mouse, UniProt P29319 21-983); assay: flow cytometry on live B16 cells, 5 ug/ml IgG, anti-human IgG phycoerythrin conjugate [B16]
T2 construct: whole, on cells; Endogenous EphA3 of a tumor cell line known to express EphA3; also called B16-F10
T2 sequence (looked up): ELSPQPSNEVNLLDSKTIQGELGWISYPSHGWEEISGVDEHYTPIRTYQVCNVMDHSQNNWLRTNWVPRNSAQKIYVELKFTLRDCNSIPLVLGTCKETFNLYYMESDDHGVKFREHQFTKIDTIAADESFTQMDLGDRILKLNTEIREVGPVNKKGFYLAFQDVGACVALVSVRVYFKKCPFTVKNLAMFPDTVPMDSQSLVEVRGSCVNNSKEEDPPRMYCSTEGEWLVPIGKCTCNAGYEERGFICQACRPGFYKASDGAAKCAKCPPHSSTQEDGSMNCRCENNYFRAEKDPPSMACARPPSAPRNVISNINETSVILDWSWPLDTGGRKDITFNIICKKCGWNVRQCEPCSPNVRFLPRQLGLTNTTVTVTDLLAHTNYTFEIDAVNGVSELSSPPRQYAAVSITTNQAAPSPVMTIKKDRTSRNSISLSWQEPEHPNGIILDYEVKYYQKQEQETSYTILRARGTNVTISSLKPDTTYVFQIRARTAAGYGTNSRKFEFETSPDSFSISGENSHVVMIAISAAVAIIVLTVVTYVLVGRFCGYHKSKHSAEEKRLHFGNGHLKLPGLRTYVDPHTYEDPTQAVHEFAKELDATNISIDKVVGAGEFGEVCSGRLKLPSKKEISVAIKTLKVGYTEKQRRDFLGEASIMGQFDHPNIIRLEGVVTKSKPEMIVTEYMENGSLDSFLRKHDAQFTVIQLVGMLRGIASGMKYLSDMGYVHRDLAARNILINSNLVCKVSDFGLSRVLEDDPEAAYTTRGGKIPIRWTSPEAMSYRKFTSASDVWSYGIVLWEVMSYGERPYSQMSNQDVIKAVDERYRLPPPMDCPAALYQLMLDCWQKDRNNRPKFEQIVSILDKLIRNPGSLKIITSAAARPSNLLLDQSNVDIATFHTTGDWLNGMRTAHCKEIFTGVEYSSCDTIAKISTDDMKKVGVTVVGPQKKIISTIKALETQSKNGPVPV
Source text: (§1) B16, SKme128, and LnCAP cells were blocked with 2% BSA and rat IgG and probed with engineered anti-EphA3 IgG, chimeric IIIA4 IgG or an isotype control IgG. Bound antibody was detected by an anti-human IgG Phycoerythrin conjugate using a Facs Caliber flow cytometry (BD). Dead cells were excluded by propidium iodide staining For each graph, the control antibody profile is the left-most curve shown in the graph.
(§2) Typically, 3×10⁶ cells of SKme128, LnCAP and B16-F10 were collected by centrifugation at 3000 rpm for 3 minutes. Media were removed and the cells blocked with 2% BSA in PBS for 30 minutes at 4° C. followed by a second block with 10 μg/ml rat IgG for 30 minutes at 4° C. Cells were pelleted, re-suspended in 1.5 ml PBS and divided into 500 μl aliquots. Each aliquot was probed separately with 5 μg/ml of control IgG, humaneered IgG or chimeric IIIA4 IgG for 45 minutes at 4° C. The samples were washed once in PBS and anti-human IgG-phycoerythrin-conjugate was added. After 45 minutes, cells were washed once, re-suspended in PBS and analyzed by flow cytometry using a FACS Caliber flow cytometery. Propidium iodide was added just prior to analysis to exclude dead cells.
(§3) The exemplary engineered antibody was also tested for binding to EphA3 expressed on the surface of live cells. […] Bound antibody was detected using flow cytometry by an anti-human IgG phycoerythrin conjugate (FIG. 5). […]

[3] = biological target: T3, EphA3 expressed on the surface of human cells (SKmel28 human melanoma, LnCAP prostate cancer line, primary … (human, UniProt P29320 21-983)); assay: flow cytometry on live SKmel-28 cells, 5 ug/ml IgG, anti-human IgG phycoerythrin conjugate [SKmel-28]
T3 construct: whole, on cells; It gives no species for LnCAP, and the leukemia cells come from patients; also called SKme128; primary leukemia cells expressing EphA3
T3 sequence (looked up): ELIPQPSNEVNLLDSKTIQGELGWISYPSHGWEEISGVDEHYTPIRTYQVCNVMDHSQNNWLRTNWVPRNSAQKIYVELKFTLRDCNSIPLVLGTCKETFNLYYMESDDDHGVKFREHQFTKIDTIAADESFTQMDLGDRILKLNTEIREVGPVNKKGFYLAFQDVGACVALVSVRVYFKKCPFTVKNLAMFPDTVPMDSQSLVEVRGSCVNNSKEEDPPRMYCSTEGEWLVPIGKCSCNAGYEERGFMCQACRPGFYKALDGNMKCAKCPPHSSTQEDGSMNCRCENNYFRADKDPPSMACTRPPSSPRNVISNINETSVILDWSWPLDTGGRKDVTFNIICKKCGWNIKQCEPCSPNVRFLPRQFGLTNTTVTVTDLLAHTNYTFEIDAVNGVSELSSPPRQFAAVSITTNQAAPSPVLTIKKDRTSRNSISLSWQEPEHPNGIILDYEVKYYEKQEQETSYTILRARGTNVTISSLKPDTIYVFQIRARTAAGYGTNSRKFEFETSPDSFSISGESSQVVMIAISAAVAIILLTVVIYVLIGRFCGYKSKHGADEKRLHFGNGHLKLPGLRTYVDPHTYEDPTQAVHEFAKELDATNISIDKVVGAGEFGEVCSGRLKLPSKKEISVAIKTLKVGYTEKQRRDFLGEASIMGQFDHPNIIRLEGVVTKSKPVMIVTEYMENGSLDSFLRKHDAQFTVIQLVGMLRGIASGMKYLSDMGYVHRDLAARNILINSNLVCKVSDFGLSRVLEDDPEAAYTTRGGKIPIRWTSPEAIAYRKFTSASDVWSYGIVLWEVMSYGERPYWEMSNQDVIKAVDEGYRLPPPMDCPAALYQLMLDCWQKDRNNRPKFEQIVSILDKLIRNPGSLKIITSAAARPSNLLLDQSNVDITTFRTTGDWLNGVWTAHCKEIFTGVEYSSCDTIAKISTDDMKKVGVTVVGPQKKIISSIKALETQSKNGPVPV
Source text: as §1, §2, §3

[4] = biological target: T1, EphA3-Fc recombinant fusion protein; assay: SPR (Biacore), 25 C, medium density surface, 1:1 model
Protocol: (§4) Binding kinetics of two engineered Fabs and reference Fab FA106 were analyzed using a Biacore. The three Fabs were diluted from the starting concentration of 500 nM to 100 nM and further tested in a three-fold dilution series using PBS, pH 7.4 with 0.005% Tween-20 and 0.1 mg/ml BSA. Each of the five concentrations was tested three times over the three different density surfaces. Assays were run at 25° C. The response data from each surface were fit to a 1:1 interaction model.

[5] = biological target: T1, EphA3-Fc recombinant fusion protein; assay: SPR (Biacore), 25 C, medium density surface, 1:1 model; medium chip density
Protocol: as §4

[6] = biological target: T1, EphA3-Fc recombinant fusion protein; assay: SPR (Biacore), 25 C, low density surface, 1:1 model
Protocol: as §4

[7] = biological target: T1, EphA3-Fc recombinant fusion protein; assay: SPR (Biacore), 25 C, high density surface, 1:1 model; high chip density
Protocol: as §4

[8] = biological target: T1, EphA3-Fc recombinant fusion protein; assay: SPR (Biacore), 25 C, high density surface, 1:1 model
Protocol: as §4

[9] = biological target: T1, EphA3-Fc recombinant fusion protein; assay: SPR (Biacore), 25 C, low density surface, 1:1 model; low chip density
Protocol: as §4

[10] = biological target: T1, EphA3-Fc recombinant fusion protein; assay: SPR (Biacore), 25 C, average of three surface densities, 1:1 model
Protocol: as §4

B1: Chimeric IIIA4 IgG (antibody, V domains shown)
VH: EVKLEESGAELVKPGSSVKLSCKASGYNFTSYWINWVRLRPGQGLEWIGDIYPGSGNTNYDEKFKRKATLTVDTSSSTAYMQLSSLASEDSALYYCTRSGYYEDFDSWGQGTTLIVSS
VL: DIVLTQTPSSLSASLEERVSLTCRASQEISGYLGWLQQKPDGTIKRLIYAASTLDSGVPKKFSGNRSGSEYSLTISSLESEDFADYYCVQYANYPYTFGGGTKLEIK
notes: also called original chimeric antibody
EC50 (read off the curve) [1]: ~0.2 µg/mL | binding result [2]: binds | binding result [3]: binds

B2: optimized reference Fab FA106 (Fab, V domains shown)
VH: B1 VH with S91T, L93V, T97A, L114V, I115T
VL: B1 VL with D85T, G100Q
notes: Fab derived from FA4 with several framework residues changed to human germ-line; Expressed in E. coli
Kd [4]: 2.91 nM | kon [4]: 611000 M⁻¹ s⁻¹ | koff [5]: 0.00178 s⁻¹ | Kd [6]: 1.4 nM | kon [6]: 4.1e+06 M⁻¹ s⁻¹ | koff [7]: 0.00345 s⁻¹ | Kd [8]: 2.06 nM | kon [8]: 1.67e+06 M⁻¹ s⁻¹ | koff [9]: 0.0058 s⁻¹ | Kd [10]: 2.1 nM | koff [10]: 0.003 s⁻¹ | kon [10]: 2e+06 M⁻¹ s⁻¹
